Consider one molecule from publication PMC6123713, “Adenylate kinase potentiates the capsular polysaccharide by modulating Cps2D in Streptococcus pneumoniae D39” (Experimental & Molecular Medicine, 2018).

For test [1], the target named is T1, His6-Cps2D 3Y3E (Y215E/Y218E/Y221E) (Streptococcus pneumoniae type 2 (D39), UniProt Q9ZII6 1-226, Y215E | Y218E | Y221E).
T1 construct: tyrosine kinase Cps2D of Streptococcus pneumoniae type 2 (D39), triple phosphomimetic mutant of the C-terminal tyrosine cluster; also called pCPS04; source: recombinant, purified to homogeneity; plasmid pCPS04 (E. coli plasmid pHis-parallel 2); cloning and purification in the Supplementary Information
T1 sequence: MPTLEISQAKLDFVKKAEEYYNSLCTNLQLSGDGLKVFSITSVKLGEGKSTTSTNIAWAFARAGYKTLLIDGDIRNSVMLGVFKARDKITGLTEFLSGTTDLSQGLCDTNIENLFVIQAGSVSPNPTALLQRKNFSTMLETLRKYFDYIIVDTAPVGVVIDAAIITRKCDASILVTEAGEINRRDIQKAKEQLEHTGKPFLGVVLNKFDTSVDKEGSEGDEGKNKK
The experiment in a line: BLI; Blitz system; His6-Cps2D protein (1 μM) immobilised on Ni-NTA sensors; GST-SpAdK 2.5-50 μM; buffer D (250 mM NaCl, 50 mM Tris-HCl, pH 7.5, 1 mM DTT) with 5 mM Mg-ATP; GST and sensor background subtracted; steady-state analysis; apparent Kd. The following applies: both partners purified. (In BLI a coated tip is dipped into the sample, and binding shifts an interference pattern.)

Test [2] concerns the target T2, His6-Cps2D wild-type (Streptococcus pneumoniae type 2 (D39), UniProt Q9ZII6 1-226).
T2 construct: autophosphorylating tyrosine kinase Cps2D of Streptococcus pneumoniae type 2 (D39), approximately 226 amino acids; also called Cps2D WT; pCPS03; source: recombinant, purified to homogeneity; plasmid pCPS03 (E. coli plasmid pHis-parallel 2); cloning and purification in the Supplementary Information
T2 sequence: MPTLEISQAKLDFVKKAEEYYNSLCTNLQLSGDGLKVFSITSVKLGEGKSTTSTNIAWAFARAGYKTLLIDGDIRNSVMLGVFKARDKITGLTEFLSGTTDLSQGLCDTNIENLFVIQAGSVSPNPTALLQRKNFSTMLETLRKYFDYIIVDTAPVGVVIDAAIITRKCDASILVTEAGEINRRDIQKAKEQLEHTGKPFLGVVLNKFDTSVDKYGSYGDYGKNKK
Described as above. As to conditions: both partners purified.

B1: GST-SpAdK (Streptococcus pneumoniae adenylate kinase, GST-tagged) (enzyme)
chain: MNLLIMGLPGAGKGTQAAKIVEQFHVAHISTGDMFRAAMANQTEMGVLAKSYIDKGELVPDEVTNGIVKERLSQDDIKETGFLLDGYPRTIEQAHALDKTLAELGIELEGIINIEVNPDSLLERLSGRIIHRVTGETFHKVFNPPVDYKEEDYYQREDDKPETVKRRLDVNIAQGEPIIAHYRAKGLVHDIEGNQDINDVFSDIEKVLTNLK
notes: adenylate kinase of Streptococcus pneumoniae (SpAdK); also called glutathione S-transferase (GST)-SpAdK; pGST-ADK; source: recombinant, purified; plasmid pGST-ADK (E. coli plasmid pGST-parallel 2); cloning and purification in the Supplementary Information
Turning to B1, the Kd was 40 ± 17 µM in test [1] and 31 ± 5 µM in test [2].
